# Data taken from US20180250358A1, “GHRH AGONISTS FOR THE TREATMENT OF ISCHEMIC DISORDERS” (published 2018).
# Non-standard residues stand in square brackets, D forms with d. No end group written: not given here. *: point of attachment. Desaminotyrosyl = O=C(CCc1ccc(O)cc1)*; NMeY = CN[C@@H](Cc1ccc(O)cc1)C(=O)O; Nle = CCCC[C@H](N)C(=O)O; Orn = NCCC[C@H](N)C(=O)O; Abu = CC[C@H](N)C(=O)O; Ava = NCCCCC(=O)O; GABA = NCCCC(=O)O
# T1: GHRH receptor of human pituitary membranes (human, UniProt Q02643)
# T1 sequence: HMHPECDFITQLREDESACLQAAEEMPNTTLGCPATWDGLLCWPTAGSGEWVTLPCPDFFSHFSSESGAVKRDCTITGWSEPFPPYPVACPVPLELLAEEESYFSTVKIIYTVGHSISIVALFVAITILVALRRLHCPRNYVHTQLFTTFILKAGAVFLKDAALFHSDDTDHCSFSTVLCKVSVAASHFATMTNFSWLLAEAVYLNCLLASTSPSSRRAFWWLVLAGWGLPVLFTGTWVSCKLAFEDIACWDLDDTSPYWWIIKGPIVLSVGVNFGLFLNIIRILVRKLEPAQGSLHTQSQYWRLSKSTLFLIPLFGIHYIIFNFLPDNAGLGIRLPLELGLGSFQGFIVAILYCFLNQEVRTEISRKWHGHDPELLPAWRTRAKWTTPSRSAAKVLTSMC
# B1: P-25503 [N-Me-Tyr^1, Abu^2, Orn^12, Abu^15, Orn^21, Nle^27, Gab^30]hGHRH(1-30)NH2 (peptide)
# peptide: YADAIFTNSYRKVLGQLSARKLLQDIMSRQ
# modifications: N-Me-Tyr^1; Abu^2; Orn^12; Abu^15; Orn^21; Nle^27; Gab^30 (in place of Gln^30); C-terminal -NH2
# B2: P-27400 [Dat^1, D-Ala^2, Orn^12, Abu^15, Orn^21, Nle^27, Asp^28]hGHRH(1-29)NH-CH3 (peptide)
# peptide: [Desaminotyrosyl][dA]DAIFTNSYR[Orn]VL[Abu]QLSAR[Orn]LLQDI[Nle]DR-NHMe
# SMILES: CCCC[C@H](NC(=O)[C@@H](NC(=O)[C@H](CC(=O)O)NC(=O)[C@H](CCC(N)=O)NC(=O)[C@H](CC(C)C)NC(=O)[C@H](CC(C)C)NC(=O)[C@H](CCCN)NC(=O)[C@H](CCCNC(=N)N)NC(=O)[C@H](C)NC(=O)[C@H](CO)NC(=O)[C@H](CC(C)C)NC(=O)[C@H](CCC(N)=O)NC(=O)[C@H](CC)NC(=O)[C@H](CC(C)C)NC(=O)[C@@H](NC(=O)[C@H](CCCN)NC(=O)[C@H](CCCNC(=N)N)NC(=O)[C@H](Cc1ccc(O)cc1)NC(=O)[C@H](CO)NC(=O)[C@H](CC(N)=O)NC(=O)[C@@H](NC(=O)[C@H](Cc1ccccc1)NC(=O)[C@@H](NC(=O)[C@H](C)NC(=O)[C@H](CC(=O)O)NC(=O)[C@@H](C)NC(=O)CCc1ccc(O)cc1)[C@@H](C)CC)[C@@H](C)O)C(C)C)[C@@H](C)CC)C(=O)N[C@@H](CC(=O)O)C(=O)N[C@@H](CCCNC(=N)N)C(=O)NC
# B3: P-22325 [N-Me-Tyr^1, Gln^8, Orn^12, Abu^15, Orn^21, Nle^27, Asp^28, Apa^30]hGHRH(1-30)NH2 (peptide)
# peptide: [NMeY]ADAIFTQSYR[Orn]VL[Abu]QLSAR[Orn]LLQDI[Nle]DR[Ava]-NH2
# modifications: N-terminus assumed
# SMILES: CCCC[C@H](NC(=O)[C@@H](NC(=O)[C@H](CC(=O)O)NC(=O)[C@H](CCC(N)=O)NC(=O)[C@H](CC(C)C)NC(=O)[C@H](CC(C)C)NC(=O)[C@H](CCCN)NC(=O)[C@H](CCCNC(=N)N)NC(=O)[C@H](C)NC(=O)[C@H](CO)NC(=O)[C@H](CC(C)C)NC(=O)[C@H](CCC(N)=O)NC(=O)[C@H](CC)NC(=O)[C@H](CC(C)C)NC(=O)[C@@H](NC(=O)[C@H](CCCN)NC(=O)[C@H](CCCNC(=N)N)NC(=O)[C@H](Cc1ccc(O)cc1)NC(=O)[C@H](CO)NC(=O)[C@H](CCC(N)=O)NC(=O)[C@@H](NC(=O)[C@H](Cc1ccccc1)NC(=O)[C@@H](NC(=O)[C@H](C)NC(=O)[C@H](CC(=O)O)NC(=O)[C@H](C)NC(=O)[C@H](Cc1ccc(O)cc1)NC)[C@@H](C)CC)[C@@H](C)O)C(C)C)[C@@H](C)CC)C(=O)N[C@@H](CC(=O)O)C(=O)N[C@@H](CCCNC(=N)N)C(=O)NCCCCC(N)=O
# B4: P-27407 [Dat^1, Gln^8, Orn^12, Abu^15, Orn^21, Nle^27, Asp^28]hGHRH(1-29)NH-CH3 (peptide)
# peptide: [Desaminotyrosyl]ADAIFTQSYR[Orn]VL[Abu]QLSAR[Orn]LLQDI[Nle]DR-NHMe
# SMILES: CCCC[C@H](NC(=O)[C@@H](NC(=O)[C@H](CC(=O)O)NC(=O)[C@H](CCC(N)=O)NC(=O)[C@H](CC(C)C)NC(=O)[C@H](CC(C)C)NC(=O)[C@H](CCCN)NC(=O)[C@H](CCCNC(=N)N)NC(=O)[C@H](C)NC(=O)[C@H](CO)NC(=O)[C@H](CC(C)C)NC(=O)[C@H](CCC(N)=O)NC(=O)[C@H](CC)NC(=O)[C@H](CC(C)C)NC(=O)[C@@H](NC(=O)[C@H](CCCN)NC(=O)[C@H](CCCNC(=N)N)NC(=O)[C@H](Cc1ccc(O)cc1)NC(=O)[C@H](CO)NC(=O)[C@H](CCC(N)=O)NC(=O)[C@@H](NC(=O)[C@H](Cc1ccccc1)NC(=O)[C@@H](NC(=O)[C@H](C)NC(=O)[C@H](CC(=O)O)NC(=O)[C@H](C)NC(=O)CCc1ccc(O)cc1)[C@@H](C)CC)[C@@H](C)O)C(C)C)[C@@H](C)CC)C(=O)N[C@@H](CC(=O)O)C(=O)N[C@@H](CCCNC(=N)N)C(=O)NC
# B5: P-27415 [N-Me-Tyr^1, Orn^12, Abu^15, Orn^21, Nle^27, Gab^30]hGHRH(1-30)NH-CH3 (peptide)
# peptide: B1 peptide
# modifications: N-Me-Tyr^1; Orn^12; Abu^15; Orn^21; Nle^27; Gab^30 (in place of Gln^30); C-terminal -NH-CH3
# Molecular target: T1, GHRH receptor of human pituitary …
# Experiment: competition vs 125I-JV-1-42, human pituitary membranes;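 further: pituitaries used were normal human glands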
# Source text: Normal human pituitaries were purchased from the National Hormone and Peptide Program (A.F. Parlow, Los Angeles, County Harbor-UCLA Medical Center, Torrance, Calif.).
IC50 [nM],relative affinity (binding potency) vs JI-38 [vs JI-38=1],Binder
0.52,8.37,"[NMeY][dA]DAIFTQSYR[Orn]VL[Abu]QLSAR[Orn]LLQDI[Nle]DR-NHEt [P-28420 [N-Me-Tyr^1, D-Ala^2, Gln^8, Orn^12, Abu^15, Orn^21, Nle^27, Asp^28]hGHRH(1-29)NH-CH2-CH3]"
1.47,2.96,"[NMeY][dA]DAIFTNSYR[Orn]VL[Abu]QLSAR[Orn]LLQDI[Nle]DR-NHEt [P-28421 [N-Me-Tyr^1, D-Ala^2, Orn^12, Abu^15, Orn^21, Nle^27, Asp^28]hGHRH(1-29)NH-CH2-CH3]"
1.08,4.03,"[NMeY]ADAIFTQSYR[Orn]VL[Abu]QLSAR[Orn]LLQDI[Nle]SR-NHMe [P-27405 [N-Me-Tyr^1, Gln^8, Orn^12, Abu^15, Orn^21, Nle^27]hGHRH(1-29)NH-CH3]"
1.18,3.67,B1
1.22,3.57,"[NMeY]ADAIFTQSYR[Orn]VL[Abu]QLSAR[Orn]LLQDI[Nle]SRQ-{GABA-NH2} [P-29703 [N-Me-Tyr^1, Gln^8, Orn^12, Abu^15, Orn^21, Nle^27, Gln-Gab^30]hGHRH(1-30)NH2]"
3.35,1.3,B2
3.8,1.14,B3
3,1.45,B4
3.02,1.44,B5

# Molecular target: T1, GHRH receptor of human pituitary …
# Experiment: competition vs 125I-[His1,Nle27]hGHRH(1-32)NH2, human pituitary membranes
# Source text: Normal human pituitary was purchased from the National Hormone and Peptide Program (UCLA Medical Center, Torrance, Calif.).
IC50 [nM],relative affinity (binding potency) compared to JI-38 [vs JI-38=1],relative affinity (binding potency) compared to hGHRH(1-29),Binder
2.7,1.01,2.83 vs hGHRH(1-29)NH2=1,"[NMeY][dA]DAIFTQSYR[Orn]VL[Abu]QLSAR[Orn]LLQDI[Nle]DR-NHEt [P-28420 [N-Me-Tyr^1, D-Ala^2, Gln^8, Orn^12, Abu^15, Orn^21, Nle^27, Asp^28]hGHRH(1-29)NH-CH2-CH3]"
3.05,0.9,2.5 vs hGHRH(1-29)NH2=1,"[NMeY][dA]DAIFTNSYR[Orn]VL[Abu]QLSAR[Orn]LLQDI[Nle]DR-NHEt [P-28421 [N-Me-Tyr^1, D-Ala^2, Orn^12, Abu^15, Orn^21, Nle^27, Asp^28]hGHRH(1-29)NH-CH2-CH3]"
–,1.09,3.04 vs hGHRH(1-29)NH2=1,"[NMeY]ADAIFTQSYR[Orn]VL[Abu]QLSAR[Orn]LLQDI[Nle]SR-NHMe [P-27405 [N-Me-Tyr^1, Gln^8, Orn^12, Abu^15, Orn^21, Nle^27]hGHRH(1-29)NH-CH3]"
–,0.54,1.52 vs hGHRH(1-29)NH2=1,B4
